Measurements: paper PMC11600153, “Mg^2+-Ion Dependence Revealed for a BAHD 13-O-β-Aminoacyltransferase from Taxus Plants” (JACS Au, 2024)

Substrate: CC(C)=C[C@H](N)[C@@H](O)C(=O)O
Experiment: LC/ESI-MS/MS product quantification, Michaelis-Menten fit
Type: biochemical, Brevibacillus parabrevis
Conditions: 7 varied 0.05-1 mM, CoA 1 mM, ATP 1 mM, MgCl2, phosphate pH 8, 31 °C

B1: PheAT (truncated TycA module of tyrocidine synthase) (Brevibacillus parabrevis) (protein)
chain: MLANQANLIDNKRELEQHALVPYAQGKSIHQLFEEQAEAFPDRVAIVFENRRLSYQELNRKANQLARALLEKGVQTDSIVGVMMEKSIENVIAILAVLKAGGAYVPIDIEYPRDRIQYILQDSQTKIVLTQKSVSQLVHDVGYSGEVVVLDEEQLDARETANLHQPSKPTDLAYVIYTSGTTGKPKGTMLEHKGIANLQSFFQNSFGVTEQDRIGLFASMSFDASVWEMFMALLSGASLYILSKQTIHDFAAFEHYLSENELTIITLPPTYLTHLTPERITSLRIMITAGSASSAPLVNKWKDKLRYINAYGPTETSICATIWEAPSNQLSVQSVPIGKPIQNTHIYIVNEDLQLLPTGSEGELCIGGVGLARGYWNRPDLTAEKFVDNPFVPGEKMYRTGDLAKWLTDGTIEFLGRIDHQVKIRGHRIELGEIESVLLAHEHITEAVVIAREDQHAGQYLCAYYISQQEATPAQLRDYAAQKLPAYMLPSYFVKLDKMPLTPNDKIDRKALPEPDLTANQSQAAYHPPRTETESILVSIWQNVLGIEKIGIRDNFYSLGGDSIQAIQVVARLHSYQLKLETKDLLNYPTIEQVALFVKSTTRKSD
notes: truncated TycA (PheAT)
For B1, the Km was 112 µM and the kcat was 0.0083 s⁻¹.
